# Results taken from patent US20210268096A1 (TRELLIS BIOSCIENCE, published 2021).
# B1: mAb 3D3 (antibody, V domains shown)
# VH: EEQLVESGGGLVQPGRSLRLSCVGSGLRFEEHAMHWVRQAPGRGLEWVSGISWNSGSVGYADSVKGRFTTSRDNAKDILFLEMNTLRSEDTALYFCAIMVATTKNDFHYYKDVWGKGTTVTVSS
# VL: QIVLTQSPATLSLSPGERATLSCKASQSVSNHLAWYQQKPGQAPRLLIYETSNRATGIPPRFSGSGSGTDFTLTISSLEPEDFAVYYCQQRNNWYTFGQGTKLEIK
# B2: mAb 2D10 (antibody, V domains shown)
# VH: QVQLVQSGPEVKKPGASVRLSCKASGYVFTNYGVSWVRQAPGQGLEWMGWSSPYNGNTYYAQKLKARVTMTTDTSTNTAYMELRSLRSDDTAVYYCGRDMLGVVQAVAGPFDSWGQGTLVTVSS
# VL: DTPMTQSPSSVSASVGDRVTISCRASQGISNSLAWYQQKLGKAPQLLIYAASSLQSGVPSRFSGSGSGTDFTLTISSLQPEDFATYYCQQTNTFPFTFGPGTKVEVRR
# How the values were obtained:
# [1] = target: human chemokine receptor CX3CR1 (human) (UniProt P49238); assay: cell-based or functional assay
# human chemokine receptor CX3CR1 (human), sequence (P49238 whole entry): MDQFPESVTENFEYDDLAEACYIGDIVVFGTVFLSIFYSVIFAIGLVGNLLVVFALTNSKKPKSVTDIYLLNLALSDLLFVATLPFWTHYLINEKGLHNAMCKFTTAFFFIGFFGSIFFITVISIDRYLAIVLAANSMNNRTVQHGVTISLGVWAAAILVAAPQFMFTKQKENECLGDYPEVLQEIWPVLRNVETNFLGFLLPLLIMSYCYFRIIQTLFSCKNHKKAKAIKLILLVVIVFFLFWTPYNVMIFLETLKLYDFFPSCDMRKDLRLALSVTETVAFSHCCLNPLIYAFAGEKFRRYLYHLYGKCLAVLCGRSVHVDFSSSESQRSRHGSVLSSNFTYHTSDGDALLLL
# [2] = target: T1, recombinant RSV G[161-197] (respiratory syncytial virus (RSV), UniProt P03423 161-197); assay: cell-based or functional assay
# T1 chain: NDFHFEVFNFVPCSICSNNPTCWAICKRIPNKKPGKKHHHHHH
Molecule,chemotactic index (fold-increase in THP-1 cell migration vs serum-free media) (fold (chemotactic index)) [1],chemotactic index of 5 nM RSV G[161-197] pre-incubated with 25 nM mAb [2]
recombinant RSV G[161-197] (from UniProt P03423 161-197) (peptide),4.2,
RSV G ectodomain (G[ecto]) (from UniProt P03423 64-298),3.9,
B1,,1.5 fold (chemotactic index)
B2,,1 fold (chemotactic index)
